Assay results reported in US20260028424A1 (GRANULAR THERAPEUTICS, published 2026).

Legend:
[1] = target: T1, human CD203c His-tagged recombinant protein (human, UniProt O14638 49-875, limits assumed); test: direct binding ELISA on coated recombinant human CD203c
T1 construct: also called ENPP3; not shown: His tag
T1 sequence (looked up): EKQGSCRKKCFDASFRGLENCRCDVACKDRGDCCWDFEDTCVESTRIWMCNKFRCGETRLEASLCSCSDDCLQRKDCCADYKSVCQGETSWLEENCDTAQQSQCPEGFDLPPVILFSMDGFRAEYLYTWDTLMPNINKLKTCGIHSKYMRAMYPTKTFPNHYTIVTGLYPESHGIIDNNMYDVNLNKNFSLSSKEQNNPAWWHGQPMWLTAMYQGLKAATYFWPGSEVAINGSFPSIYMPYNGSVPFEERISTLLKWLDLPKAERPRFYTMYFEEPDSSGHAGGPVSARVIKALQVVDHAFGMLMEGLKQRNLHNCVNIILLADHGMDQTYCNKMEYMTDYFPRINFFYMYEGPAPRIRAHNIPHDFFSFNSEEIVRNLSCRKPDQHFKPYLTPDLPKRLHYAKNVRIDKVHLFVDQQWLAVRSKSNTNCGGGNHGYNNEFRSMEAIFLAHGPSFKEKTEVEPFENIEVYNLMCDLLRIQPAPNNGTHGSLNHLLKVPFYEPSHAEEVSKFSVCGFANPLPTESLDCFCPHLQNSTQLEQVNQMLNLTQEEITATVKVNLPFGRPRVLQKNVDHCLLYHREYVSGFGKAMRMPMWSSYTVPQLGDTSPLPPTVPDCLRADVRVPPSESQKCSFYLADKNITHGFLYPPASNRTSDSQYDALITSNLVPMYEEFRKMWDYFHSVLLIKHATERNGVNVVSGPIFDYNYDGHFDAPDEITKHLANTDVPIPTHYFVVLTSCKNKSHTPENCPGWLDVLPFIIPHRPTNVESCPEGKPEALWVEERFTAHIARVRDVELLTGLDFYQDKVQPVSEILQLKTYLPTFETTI
Method: (§1) Binding and cross-reactivity of the molecules to the human, rhesus, and cynomolgus CD203c was initially assessed by binding ELISA. The human CD203c His-tagged recombinant protein and the rhesus monkey CD203c His-tagged recombinant protein were coated to the surface of MaxiSorp™ flat-bottom 96 well plates at a concentration of 1 μg/ml. The purified samples were titrated in 5-fold serial dilutions starting from 100 nM and allowed to bind to the coated antigens. The IgGs were detected using mouse anti-human IgG conjugated to horseradish peroxidase. Binding signals were visualized with 3,3′,5,5′-Tetramethylbenzidine Substrate Solution (TMB) and the absorbance measured at 450 nm.

[2] = target: T2, rhesus monkey CD203c His-tagged recombinant protein (rhesus monkey, UniProt F6TH66 31-874); test: direct binding ELISA on coated recombinant rhesus CD203c
T2 construct: also called rhesus CD203c; not shown: His tag
T2 sequence: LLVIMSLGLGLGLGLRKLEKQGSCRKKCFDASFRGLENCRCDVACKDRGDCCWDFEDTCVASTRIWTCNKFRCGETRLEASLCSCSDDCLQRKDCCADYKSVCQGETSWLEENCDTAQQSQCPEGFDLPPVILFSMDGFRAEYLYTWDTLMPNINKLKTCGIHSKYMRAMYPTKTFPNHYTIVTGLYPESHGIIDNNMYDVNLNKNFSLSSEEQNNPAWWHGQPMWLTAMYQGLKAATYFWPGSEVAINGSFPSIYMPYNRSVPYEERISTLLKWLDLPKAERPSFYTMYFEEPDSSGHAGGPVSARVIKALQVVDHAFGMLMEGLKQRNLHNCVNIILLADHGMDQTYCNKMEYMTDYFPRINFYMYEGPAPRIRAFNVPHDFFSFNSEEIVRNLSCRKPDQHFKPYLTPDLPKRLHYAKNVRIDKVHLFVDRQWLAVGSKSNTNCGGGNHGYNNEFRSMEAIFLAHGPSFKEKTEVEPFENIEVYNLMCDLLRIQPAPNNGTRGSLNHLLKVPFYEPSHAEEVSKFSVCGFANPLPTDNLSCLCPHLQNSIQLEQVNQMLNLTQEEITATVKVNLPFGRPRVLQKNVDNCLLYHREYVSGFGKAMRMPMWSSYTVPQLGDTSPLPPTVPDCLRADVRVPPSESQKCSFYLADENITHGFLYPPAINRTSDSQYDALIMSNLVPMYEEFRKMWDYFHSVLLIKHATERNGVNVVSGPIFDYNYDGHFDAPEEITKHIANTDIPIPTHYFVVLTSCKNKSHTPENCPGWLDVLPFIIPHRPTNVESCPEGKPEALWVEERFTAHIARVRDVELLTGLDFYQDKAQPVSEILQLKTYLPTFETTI
Method: as §1

[3] = target: T3, human CD203c expressed on the surface of KU812 cells (human, UniProt O14638 1-875); test: flow cytometry on KU812 cells
T3 construct: whole, on cells; also called cell-surface CD203c; cell surface CD203c on KU812 cells
T3 sequence (looked up): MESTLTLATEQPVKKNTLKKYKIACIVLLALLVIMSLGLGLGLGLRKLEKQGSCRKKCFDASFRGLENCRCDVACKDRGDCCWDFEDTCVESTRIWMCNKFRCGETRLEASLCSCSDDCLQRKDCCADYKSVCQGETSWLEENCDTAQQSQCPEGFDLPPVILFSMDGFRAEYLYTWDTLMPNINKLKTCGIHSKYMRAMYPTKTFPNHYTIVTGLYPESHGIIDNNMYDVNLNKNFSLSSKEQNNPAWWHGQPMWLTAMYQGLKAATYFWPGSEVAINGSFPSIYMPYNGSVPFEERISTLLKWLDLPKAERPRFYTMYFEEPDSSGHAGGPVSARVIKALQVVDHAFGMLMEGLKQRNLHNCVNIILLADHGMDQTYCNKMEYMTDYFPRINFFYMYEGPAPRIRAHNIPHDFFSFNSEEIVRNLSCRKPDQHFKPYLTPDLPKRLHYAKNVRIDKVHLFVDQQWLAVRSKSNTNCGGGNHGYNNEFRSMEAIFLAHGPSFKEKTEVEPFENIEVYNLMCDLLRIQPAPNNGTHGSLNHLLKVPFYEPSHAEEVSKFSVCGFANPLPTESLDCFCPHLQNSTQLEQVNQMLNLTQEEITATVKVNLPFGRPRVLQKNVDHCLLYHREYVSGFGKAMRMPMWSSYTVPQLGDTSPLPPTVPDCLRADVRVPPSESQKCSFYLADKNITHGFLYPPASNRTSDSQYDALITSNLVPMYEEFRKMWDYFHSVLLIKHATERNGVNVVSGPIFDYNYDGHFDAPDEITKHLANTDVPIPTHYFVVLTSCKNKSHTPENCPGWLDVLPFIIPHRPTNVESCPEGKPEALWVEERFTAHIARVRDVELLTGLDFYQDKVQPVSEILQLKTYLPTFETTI
Method: All treatments were performed on cells seeded in T75 flasks at a seeding density of 0.3e6/ml. Cells were cultured in the presence of 80 ng/ml of SCF and treated with 20 ng/ml of IL3 24 hours prior to antibody staining. Following SCF/IL3 treatment, cells were harvested and stained with live dead stain (Zombie UV Biolegend 423108). Cells were then stained with a titration of anti-CD203c antibodies/bispecifics or respective isotype controls in a 5-fold dilution series starting at 50 μg/mL and detected with Anti human-Fc AF647 antibody (JIR 109-605-098). Samples were subsequently run on a Yeti analyzer, gating on 10K live cells. Subsequent analysis was performed using FlowJo software and data represented as MFI (median fluorescent intensity).

B1: anti-CD203c 1.27 IgG (parental clone, MH1 common light chain) (antibody, V domains shown)
VH: EVQLVQSGAEVKKPGESLKISCKGSGYRFTSYWIGWVRQMPGKGLEWMGIIYPGDSDTRYSPSFQGQVTISADKSISTAYLQWSSLKASDTAMYYCARKDYYYYAMDVWGQGTTVTVSS
VL: DIQMTQSPSSLSASVGDRVTITCRASQGIRTNLAWFQQKPGKAPKSLIYAASSLQSGVPSRFSGSGSGTDFTLTISSLQPEDFATYYCQQYNSYPRTFGGGTKVEIK
notes: IgG1null (human IgG1 with L234A, L235A, G237A) and human Ckappa
[1]
  EC50 (read off the curve): ~7 nM
[2]
  binding result: binds
[3]
  EC50: 98.2 nM
